Earlier results on four substances are cited in paper PMC8773757.

The target in data set [1] is HIF-1α PAS-B (Homo sapiens) (UniProt Q16665).
For data set [2], the target named is thymidylate synthase (Homo sapiens) (UniProt P04818).
The next data set addresses p300/CBP (Homo sapiens) (UniProt Q09472).
Another data set concerns the target CDC37 (Homo sapiens) (UniProt Q16543).
UniProt Q16543, sequence (Q16543 2-378): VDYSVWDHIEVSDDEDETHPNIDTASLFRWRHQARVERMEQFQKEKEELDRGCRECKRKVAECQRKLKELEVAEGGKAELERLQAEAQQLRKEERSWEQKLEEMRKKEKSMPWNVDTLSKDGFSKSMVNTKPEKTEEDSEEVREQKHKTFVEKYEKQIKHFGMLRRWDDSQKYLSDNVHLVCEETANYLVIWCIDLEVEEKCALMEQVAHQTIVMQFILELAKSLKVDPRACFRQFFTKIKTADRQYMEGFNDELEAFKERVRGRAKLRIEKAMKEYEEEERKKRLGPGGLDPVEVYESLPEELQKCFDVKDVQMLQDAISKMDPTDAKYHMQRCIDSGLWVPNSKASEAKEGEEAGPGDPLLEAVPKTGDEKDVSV

UniProt Q09472, sequence (Q09472 2-2414): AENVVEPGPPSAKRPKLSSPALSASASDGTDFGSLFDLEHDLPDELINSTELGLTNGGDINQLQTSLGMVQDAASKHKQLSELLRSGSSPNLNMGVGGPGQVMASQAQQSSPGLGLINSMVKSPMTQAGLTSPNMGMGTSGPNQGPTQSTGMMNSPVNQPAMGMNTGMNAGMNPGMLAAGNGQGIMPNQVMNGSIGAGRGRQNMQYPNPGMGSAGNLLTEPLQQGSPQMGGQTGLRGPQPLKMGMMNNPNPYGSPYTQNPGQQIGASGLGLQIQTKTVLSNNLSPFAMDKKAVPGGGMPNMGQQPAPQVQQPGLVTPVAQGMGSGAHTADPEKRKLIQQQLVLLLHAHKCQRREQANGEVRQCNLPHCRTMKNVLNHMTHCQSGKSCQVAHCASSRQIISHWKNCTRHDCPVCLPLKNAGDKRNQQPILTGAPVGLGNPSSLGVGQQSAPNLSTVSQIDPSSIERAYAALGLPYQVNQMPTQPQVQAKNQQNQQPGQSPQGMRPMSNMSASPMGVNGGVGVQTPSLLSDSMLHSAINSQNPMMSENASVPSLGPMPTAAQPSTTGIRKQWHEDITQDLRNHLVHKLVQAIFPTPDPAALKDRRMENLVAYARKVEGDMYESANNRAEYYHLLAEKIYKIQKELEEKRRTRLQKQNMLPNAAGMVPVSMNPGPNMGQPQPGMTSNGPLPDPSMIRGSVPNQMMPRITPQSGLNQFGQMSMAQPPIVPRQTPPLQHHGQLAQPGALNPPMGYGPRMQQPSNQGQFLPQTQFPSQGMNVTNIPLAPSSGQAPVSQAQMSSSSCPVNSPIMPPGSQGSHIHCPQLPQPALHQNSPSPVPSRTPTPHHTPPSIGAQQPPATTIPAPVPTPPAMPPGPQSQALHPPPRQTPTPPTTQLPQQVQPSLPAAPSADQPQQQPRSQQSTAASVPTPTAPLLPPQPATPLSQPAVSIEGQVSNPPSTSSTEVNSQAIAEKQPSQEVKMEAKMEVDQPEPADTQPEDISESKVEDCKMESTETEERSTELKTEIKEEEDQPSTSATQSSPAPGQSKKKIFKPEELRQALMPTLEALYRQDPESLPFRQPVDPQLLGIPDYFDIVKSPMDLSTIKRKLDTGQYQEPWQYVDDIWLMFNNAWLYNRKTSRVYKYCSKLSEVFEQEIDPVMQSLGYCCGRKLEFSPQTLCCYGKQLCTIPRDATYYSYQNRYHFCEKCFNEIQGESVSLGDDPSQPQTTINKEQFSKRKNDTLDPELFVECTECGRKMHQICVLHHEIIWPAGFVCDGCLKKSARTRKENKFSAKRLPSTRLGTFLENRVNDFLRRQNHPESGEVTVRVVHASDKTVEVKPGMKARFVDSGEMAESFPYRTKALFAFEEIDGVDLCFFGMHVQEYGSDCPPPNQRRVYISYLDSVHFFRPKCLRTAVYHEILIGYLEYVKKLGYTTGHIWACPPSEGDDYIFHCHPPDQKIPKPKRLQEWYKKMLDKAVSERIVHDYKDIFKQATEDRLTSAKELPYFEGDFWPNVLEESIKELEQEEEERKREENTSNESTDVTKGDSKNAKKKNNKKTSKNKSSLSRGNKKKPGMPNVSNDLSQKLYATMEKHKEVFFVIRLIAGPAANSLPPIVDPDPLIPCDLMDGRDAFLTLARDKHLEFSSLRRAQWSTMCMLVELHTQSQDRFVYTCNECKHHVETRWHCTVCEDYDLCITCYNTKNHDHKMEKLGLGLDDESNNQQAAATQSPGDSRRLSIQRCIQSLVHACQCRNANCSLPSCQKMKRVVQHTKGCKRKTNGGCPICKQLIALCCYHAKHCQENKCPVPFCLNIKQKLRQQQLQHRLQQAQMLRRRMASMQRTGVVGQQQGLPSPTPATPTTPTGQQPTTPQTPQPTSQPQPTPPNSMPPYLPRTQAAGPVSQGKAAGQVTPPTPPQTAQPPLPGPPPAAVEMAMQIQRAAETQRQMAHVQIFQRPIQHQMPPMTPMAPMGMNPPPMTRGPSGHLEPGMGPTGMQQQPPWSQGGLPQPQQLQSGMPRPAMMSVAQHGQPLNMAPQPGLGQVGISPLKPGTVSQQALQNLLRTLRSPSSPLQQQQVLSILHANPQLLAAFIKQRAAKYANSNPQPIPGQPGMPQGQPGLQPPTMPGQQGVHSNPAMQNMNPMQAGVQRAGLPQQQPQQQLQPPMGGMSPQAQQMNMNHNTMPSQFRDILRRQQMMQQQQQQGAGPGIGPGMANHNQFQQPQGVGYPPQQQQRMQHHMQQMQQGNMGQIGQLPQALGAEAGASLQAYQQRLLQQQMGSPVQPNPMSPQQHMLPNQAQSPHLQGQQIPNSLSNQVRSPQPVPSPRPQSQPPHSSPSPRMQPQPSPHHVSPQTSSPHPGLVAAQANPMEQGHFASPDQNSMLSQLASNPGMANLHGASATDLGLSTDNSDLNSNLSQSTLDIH
HIF-1α, sequence (Q16665 whole entry): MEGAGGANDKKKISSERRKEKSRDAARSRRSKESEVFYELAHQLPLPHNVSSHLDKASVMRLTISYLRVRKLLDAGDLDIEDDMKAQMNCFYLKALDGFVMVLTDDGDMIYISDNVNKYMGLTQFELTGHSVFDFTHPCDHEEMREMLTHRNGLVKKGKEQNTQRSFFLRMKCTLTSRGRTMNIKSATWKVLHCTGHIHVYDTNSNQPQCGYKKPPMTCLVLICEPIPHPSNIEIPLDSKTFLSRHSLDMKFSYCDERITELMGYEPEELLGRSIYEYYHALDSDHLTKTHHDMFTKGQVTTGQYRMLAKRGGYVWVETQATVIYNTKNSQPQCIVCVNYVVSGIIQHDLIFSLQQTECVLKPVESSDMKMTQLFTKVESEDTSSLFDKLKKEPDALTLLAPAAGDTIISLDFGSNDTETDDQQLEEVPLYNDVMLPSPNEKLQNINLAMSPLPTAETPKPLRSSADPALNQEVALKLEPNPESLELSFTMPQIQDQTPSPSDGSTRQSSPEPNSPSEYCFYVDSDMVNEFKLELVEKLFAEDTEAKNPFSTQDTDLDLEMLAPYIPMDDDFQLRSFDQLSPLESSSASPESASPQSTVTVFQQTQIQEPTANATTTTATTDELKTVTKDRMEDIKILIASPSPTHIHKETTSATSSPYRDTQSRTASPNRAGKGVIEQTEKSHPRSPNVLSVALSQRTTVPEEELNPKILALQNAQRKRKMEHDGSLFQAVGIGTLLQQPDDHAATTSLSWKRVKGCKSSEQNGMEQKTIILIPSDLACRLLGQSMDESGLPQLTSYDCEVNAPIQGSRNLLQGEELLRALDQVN

As for cyclo-CLLFVY, the dissociation constant Kd in data set [1] is 0.124 µM. On to “thymidylate synthase (from UniProt P04818)”, for which, in data set [2], the Kd was 0.2 µM. Turning to HIF-1α (from UniProt Q16665), the Kd in the data set with p300/CBP (Homo sapiens) was 0.007 µM.

Take HSP90 (from UniProt P07900): the Kd with CDC37 (Homo sapiens) was 100 µM.
